Results on three molecules are retold here after patent EP3250590B1 (Academia Sinica, dated 2021).

For the assay, the target named is T1, BSA (bovine, UniProt P02769 25-607).
T1 construct: also called BSA control protein; bovine serum albumin
The experiment in a line: ELISA, intact IgG on coated BSA.

Numbering of substitutions follows the chain as printed.

T1 sequence (P02769 25-607 limits assumed): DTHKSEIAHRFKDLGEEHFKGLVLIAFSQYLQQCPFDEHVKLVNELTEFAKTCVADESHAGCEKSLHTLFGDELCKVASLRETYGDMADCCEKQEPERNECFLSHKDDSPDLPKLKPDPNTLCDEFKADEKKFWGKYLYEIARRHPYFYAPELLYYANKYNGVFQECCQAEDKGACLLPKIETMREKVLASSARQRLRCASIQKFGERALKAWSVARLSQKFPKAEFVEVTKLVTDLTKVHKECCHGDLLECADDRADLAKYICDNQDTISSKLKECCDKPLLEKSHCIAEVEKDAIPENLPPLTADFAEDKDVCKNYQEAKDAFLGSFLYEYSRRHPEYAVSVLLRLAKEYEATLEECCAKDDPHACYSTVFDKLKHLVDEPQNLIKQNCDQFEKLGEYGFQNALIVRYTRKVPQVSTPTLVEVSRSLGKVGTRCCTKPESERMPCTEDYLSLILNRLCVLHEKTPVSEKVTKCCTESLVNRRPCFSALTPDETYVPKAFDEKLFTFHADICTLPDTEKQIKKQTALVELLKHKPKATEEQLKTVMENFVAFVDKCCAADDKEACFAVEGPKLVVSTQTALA

B1: 3rd humanized MC41 IgG (antibody, V domains shown)
VH: QVQLKESGPGLVAPSKTLSLTCTVSGFSLSSQGVYWIRQPPGKGLEWIGAIWAGGSTNYNSALMSRLSISKDNSKSQVFLKMNSLQTDDTAMYYCARVDGYRGYNMDYWGQGTSVTVSS
VL: ENVLTQSPAIMSATPGEKVTMTCSASSSVSYMHWYQQKSSTSPKLWIYDTSKLASGVPGRFSGSGSGNSYTLTISSMEAEDVATYYCFQGSGYPLTFGAGTKLEIKR
notes: also called 3rd-hMC41
On to B1, for which the binding result was “no binding”.

B2: chimeric MC41 (antibody, V domains shown)
VH: B1 VH with T17S, L20I, I37V, I48L
VL: B1 VL with T14S, T71S, I105L
notes: Chimeric intact IgG of murine MC41; also called chMC41
Regarding B2, the binding result is “no binding”.

B3: 2nd humanized MC41 IgG (antibody, V domains shown)
VH: B1 VH with S114L
VL: B1 VL with M32L
notes: also called hMC41; humanized 2nd IgG
Take B3: the binding result was “no binding”.
